Experiments:
[1] = molecular target: T1, recombinant human thymidine kinase 1 (hTK1) protein (human, UniProt P04183 1-234, limits assumed); assay: indirect ELISA, hTK1-coated wells against coating-solution wells, HRP-labeled anti-HA monoclonal antibody detection
T1 construct: ELISA coating antigen at 0.5 ug/ml, 100 ul per well (50 ng/well); also called recombinant hTK1 antigen
T1 sequence (looked up): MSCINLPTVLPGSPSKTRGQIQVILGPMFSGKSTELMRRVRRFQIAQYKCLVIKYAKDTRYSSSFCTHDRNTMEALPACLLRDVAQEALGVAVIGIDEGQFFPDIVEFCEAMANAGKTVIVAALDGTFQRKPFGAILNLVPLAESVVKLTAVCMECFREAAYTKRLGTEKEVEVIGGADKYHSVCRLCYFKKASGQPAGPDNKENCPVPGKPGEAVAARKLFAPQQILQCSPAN
Experimental: (§1) The recombinant IgY scFv antibody contains not only the hypervariable region that binds to hTK1, but also the highly conserved framework region (FR). In this embodiment, the HA 9-peptide tag of human influenza hemagglutinin was added. Therefore, when detecting recombinant single-chain antibodies by indirect ELISA, biotin-labeled anti-full-length IgY secondary antibody and horseradish peroxidase-labeled anti-human influenza hemagglutinin HA 9-peptide monoclonal antibodies were used as labeled antibodies, to detect recombinant anti-hTK1 single-chain antibody expressed in CHO cells. The supernatant of the transfected cells was collected and the expression level of recombinant scFv antibody was detected by ELISA experiment. The specific method is as follows:
(§2) The OD value of the CHO cell supernatant transfected with the scFv antibody gene is 6.6 times that of the CHO cell supernatant not transfected, and the ratio of the recombinant hTK1 antigen to the negative antigen control is 6.9.

[2] = molecular target: T1, recombinant human thymidine kinase 1 …; assay: indirect ELISA on coated hTK1, anti-full-length IgY biotin detection
Experimental: as §1, §2

[3] = molecular target: T1, recombinant human thymidine kinase 1 …; assay: indirect ELISA, hTK1-coated wells against coating-solution wells, anti-full-length IgY biotin detection
Experimental: as §1, §2

[4] = molecular target: T1, recombinant human thymidine kinase 1 …; assay: indirect ELISA on coated hTK1, HRP-labeled anti-HA monoclonal antibody detection
Experimental: as §1, §2

B1: recombinant anti-hTK1 chicken IgY single-chain variable fragment (scFv) antibody expressed in CHO cells (scFv)
scFv: MAAVTLDESGGGLQTPGGALSLVCKGSGFTFSSDAMGWMRQAPGKGLEFVARINSAGSYTDYGSAVDGRATISRDNGQSTVRLQLNNLRAEDTSTYFCAKSPGGFSCAYGLCWDAAGSIDAWGHGTEVIVSSGGGSGGGGSGGGGSGGGSALTQPSSVSANLGGTVKITCSGGANYYGWFQQKTPGSAPVSLIYESTKRPSNIPSRFSGSKSGSTGTLTITGVRADDEAVYYCGTYDSSTHTSIFGAGTTLYPYDVPDYA
notes: Tested as unpurified supernatant of transiently transfected CHO cells; also called recombinant IgY scFv antibody; recombinant anti-hTK1 single-chain antibody
ratio of the recombinant hTK1 antigen to the negative antigen control [1]: 0.287 ratio | OD ratio to the CHO cell supernatant not transfected [2]: 6.6 fold | ratio of the recombinant hTK1 antigen to the negative antigen control [3]: 6.9 ratio | OD ratio to the untransfected CHO cell supernatant [4]: 2.6 fold
